# In patent publication US12296066B2, “Methods of wound healing with Serp-1 polypeptides” (ARIZONA BOARD OF REGENTS ON BEHALF OF ARIZONA STATE …, priority 2018, dated 2025):
# Assays:
# [1] = tested on: full thickness dorsal skin wound; test: full-thickness splinted excisional wound healing model, planimetric wound closure; assay type: in vivo, C57BL6/J mice
# Description: The mouse dermal wound healing splinted model was used for these studies where the contraction is held by a donut-shaped splint remains the most widely accepted and extensively used model to study skin wound healing in mice (Galiano et al., Wound Repair Regen. 12 (2004) 485-492. doi:10.1111/j.1067-1927.2004.12404.x, Wang et al., Nat. Protoc. 8 (2013) 302-309. doi:10.1038/nprot.2013.002, Dunn et al., J. Vis. Exp. (2013) 1-6. doi:10.3791/50265).
# Mice (N=29 mice) were anesthetized by intraperitoneal injection of a cocktail of 120 mg/kg ketamine and 6 mg/kg xylazine, 0.1 ml/25 g bodyweight and prepped by shaving an area of approximately 1×1 inch spanning from between the ears to the peak of the spine, centered between each shoulder. The shaved area was sterilized by two washes with 2% chlorhexidine gluconate solution (Dyna-Hex 2®, Xttrium Laboratories) and 70% ethanol using cotton swabs.
# A 3.5 mm punch biopsy was performed centered in the shaved area to create the full-thickness wound excision. Treatment or control as saline solution or chitosan-collagen hydrogel preparation were applied to the wound using a hand-held micropipette. In brief, 13 mice were given saline inoculation at the time of injury, 6 mice were given Serp-1 at the time of injury at doses or 1 or 2 μg. Six mice were given 1 μg of Serp-1 and followed by second bolus at 3 days post wounding. A second group of 6 mice were given Serp-1/chitosan treatment applied at the time of injury and 6 mice were given chitosan gel alone.
# A donut-shaped silicon splint (O.D. 15 mm; I.D. 5.0 mm; Culture-Well™ Grace Biolabs) with Tegaderm™ (3M Company) affixed to one side was coated with cyanoacrylate glue (Krazy Glue®) on the opposite side and carefully placed on the back of the mouse with the biopsy site centered within the inner hole. Six interrupted sutures (4-0 black Ethilon monofilament with a FS-2 reverse cutting needle; Ethicon, Inc.) were placed around the outer edge of the splint to complete the procedure. Mice were allowed to recover and returned to single-housed cages for the remainder of the trial.
# On the day of the procedure (Day 0) and on every subsequent day of follow-up, for a total of 15 days, mice were collected and wounds assessed while awake. Digital images were collected using a Google Pixel model 1 or 3XL smartphone camera. Planimetric measurements of wound healing progress was performed in Image)/FIJI and calibrated to known pixel-to-size measurements (Schindelin et al., Nat. Methods. 9 (2012) 676-682. doi:10.1038/nmeth.2019).
# Serp-1 has proven to be an effective modulator of coagulation pathways and immune responses in numerous animal models of vascular injury and transplant. […] In this study, the efficacy of topical Serp-1 application was tested in a full-thickness excisional model of wound healing (FIG. 2A). A 3.5 mm biopsy punch was used to create a full thickness dorsal skin wound in C57BL6/J wildtype mice. Wounds were produced through the entirety of the dermis without puncturing the panniculus carnosus. In an initial analysis, Serp-1 was applied in saline solution and compared to control saline solution alone, given directly to the wound bed. A silicone splint with a gas-permeable Tegaderm layer was sutured over the bed. The silicone splint prevented wound contraction, allowing direct visualization and photography of wound re-epithelialization during the course of a 15-day healing period (FIG. 2B).
# Ly6G positive cells = test: Ly6G immunohistochemistry, neutrophil infiltration in wounds; assay type: in vivo, C57BL6/J mice; settings: day 4; p=0.110
# Description: (§1) Skin tissues were collected at day 1, 4, 7 and 15 and fixed in 10% neutral-buffered formalin for at least two days before tissue processing with a Leica TP1050 and embedded in paraffin with a Leica EG1160 embedding station. Blocks were serially sectioned using a Leica RM2165 microtome (4 μm sections) and stained with hematoxylin and eosin (H&E) by standard procedure. Sections were additionally stained by immunohistochemistry (IHC) for CD31 (Abcam, #ab28364, 1:100), Ly6G (Invitrogen, #14-5931-82, 1:100), and arginase-1 (Cell Signaling, #93668, 1:200), and with Masson's trichrome (Masson, J Tech Methods. 12 (1929) 75-90) and Herovici's polychrome (Herovici, Stain Technol. 38 (1963) 204-6, Levame and Meyer, Pathol. Biol. (Paris). 35 (1987) 1183-8) as special stains for collagen.
# (§2) Slides were imaged on an Olympus BX51 upright microscope equipped with an Olympus DP74 high-resolution camera operated by cellSens Dimensions v1.16. Images were collected as objective-calibrated TIFFs and subsequently analyzed and processed in Image)/FIJI (Schindelin et al., Nat. Methods. 9 (2012) 676-682. doi:10.1038/nmeth.2019). Positively stained cells were counted per high power field for each treatment group.
# Therefor neutrophil infiltration was analyzed at sites of wound healing with and without treatment with Serp-1 at day 4 by immunohistochemistry with antibodies against Ly6G (FIG. 6A).
# [2] = tested on: collagen bundles (Type 3 / Type 1); test: Herovici's staining of collagen maturation in healed wounds; assay type: in vivo, C57BL6/J mice
# Description: as §1
# Collagens play a crucial role in angiogenesis during tissue regeneration. It is well known that collagen I a central factor allowing for endothelial cells to initiate precapillary cord formation. In contrast increased deposition of collagen III reduces the density of blood vessels at sites of wound healing (Davis, Circ. Res. (2005). doi:10.1161/01.RES.0000191547.64391.e3, O'Rourke, Adv. Wound Care. (2018). doi:10.1089/wound.2018.0827). […]
# dermal collagen fibers = test: quantitative collagen texture analysis, Masson's trichrome; assay type: in vivo, C57BL6/J mice; settings: 15 days wound healing
# Method: (§3) Skin tissues were collected at day 1, 4, 7 and 15 and fixed in 10% neutral-buffered formalin for at least two days before tissue processing with a Leica TP1050 and embedded in paraffin with a Leica EG1160 embedding station. Blocks were serially sectioned using a Leica RM2165 microtome (4 μm sections) and stained with hematoxylin and eosin (H&E) by standard procedure. […]
# Quantitative collagen texture analysis was performed in Image)/FIJI (Schindelin, Nat. […] Local thickness of collagen bundles was determined with the plugin “LocalThickness 4.0.2” using the methods described by Saito and Toriwaki (Saito, Pattern Recognit. 27 (1994) 1551-1565. doi:10.1016/0031-3203(94)90133-3), and by Hildebrand and Rüegsegger (Hildebrand, J. Microsc. 185 (1997) 67-75. doi:10.1046/j.1365-2818.1997.1340694.x.). Regularity of collagen bundles was determined with the plugin “Directionality” as previously reported (Sensini, Biofabrication. 9 (2017) 015025. doi:10.1088/1758-5090/aa6204).
# During wound healing, collagen accumulation and organization are correlated with scar formation. […] Local scar thickness (FIG. 7C) and directionality (FIG. 7D) of collagen in scars were analyzed using ImageJ after Masson's trichrome staining under microscopic examination (20× magnification).
# [3] = tested on: Arg-1 positive macrophages; test: Arginase-1 immunohistochemistry, M2 macrophage differentiation in wounds; assay type: in vivo, C57BL6/J mice
# Description: as §3
# as §2, with “Methods. 9 (2012) 676-682. doi:10.1038/nmeth.2019).” left out
# Additionally the differentiation of M2 macrophages was =analyzed (FIG. 6C), during wound-healing (Kotwal and Chien, Macrophage differentiation in normal and accelerated wound healing, in: Results Probl. Cell Differ., 2017. doi:10.1007/978-3-319-54090-0_14), by IHC with antibodies against Arginase-1 (EC3.5.3.1). […]
# [4] = intravenous bolus injections, patients with unstable angina; cited from earlier work
# CD31-positive vessels = test: CD31 immunohistochemistry of peri-wound vascularization; assay type: in vivo, C57BL6/J mice
# Description: as §3
# as §2, with “Methods. 9 (2012) 676-682. doi:10.1038/nmeth.2019).” left out
# The blood vessels were analyzed by immunohistochemistry with antibodies against the endothelial marker CD31 (also called PECAM-1), a marker for endothelial cells commonly used to indicate wound bed blood vessels (Vanchinathan et al., Am. J. Clin. Pathol. (2015). doi:10.1309/AJCPRHM8CZH5EMFD). The number of positive staining vessels in different optical fields was quantified from four pairs of saline- and Serp-1-treated wounds. […]
molecule,measurement,setting,value
"Serp-1: Recombinant Serp-1 (m008.1L), secreted Myxomavirus glycoprotein serpin, expressed in CHO cells; SEQ ID NO: 1 (protein, listed as Homo sapiens) MKYLVLVLCLTSCACRDIGLWTFRYVYNESDNVVFSPYGLTSALSVLRIAAGGNTKREIDVPESVVEDSDAFLALRELFVDASVPLRPEFTAEFSSRFNTSVQRVTFNSENVKDVINSYVKDKTGGDVPRVLDASLDRDTKMLLLSSVRMKTSWRHVFDPSFTTDQPFYSGNVTYKVRMMNKIDTLKTETFTLRNVGYSVTELPYKRRQTAMLLVVPDDLGEIVRALDLSLVRFWIRNMRKDVCQVVMPKFSVESVLDLRDALQRLGVRDAFDPSRADFGQASPSNDLYVTKVLQTSKIEADERGTTASSDTAITLIPRNALTAIVANKPFMFLIYHKPTTTVLFMGTIT",wound closure earlier compared to saline group,"[1]; 1.0 μg Serp-1, in the first week",four
same,wound closure,"[1]; 1.0 μg/wound at day 0 and day 3, day 5",40%
same,days less to achieve same degree of closure as control group at day 7 (or 2.0 μg at day 5),"[1]; 1.0 μg/wound/mouse, single dose, mean",3 days
same,wound closure,"[1]; 2.0 μg Serp-1, day 5",greater than 20%
same,wound closure,"[1]; 2.0 μg Serp-1, day 7",47%
same,wound healing accelerated by,"[1]; 2 μg/mouse, single topical dose day 0, p<0.0001",approximately 3 days
same,day of healing equivalent to saline alone on Day 7,[1]; Serp-1 [1+1]: 1 μg/mouse on Days 0 and 3 (FIG. 2C),3 days
same,faster closure rate,"[1]; mouse model, conclusion",40%
same,scarring,"[1]; mouse model, conclusion",reduction in scarring
same,completeness of closure,"[1]; repeated treatment group (1.0 μg day 0 + day 3), 15 days of observation",more completely closure than other groups
same,wound closure,"[1]; single dose treatment groups, day 5",30%
same,"time to wound closure accelerated by, compared to saline","[1]; topical, doses of between 1 microgram and 2 micrograms, punch wounds on mouse back",2 to 5 days
same,Ly6G positive cells in healing tissues,Ly6G positive cells,non significant trend toward an increase
same,ratio of collagen types in treated wound,"[2]; Herovici's stain, FIG. 8",increasing the ratio of collagen III to collagen I
same,collagen maturation by Herovici's stain,"[2]; day 15, versus saline-treated wounds",greater degree of maturation
same,collagen bundle thickness,dermal collagen fibers,increased bundle thickness
same,collagen directionality,dermal collagen fibers,more organized directionality
same,density of Arg-1 positive macrophages,"[3]; day 4, compared to control wounds",significantly increased density
same,density of Arg-1 positive (M2) macrophages,"[3]; day 7, compared to untreated wounds",significant higher
same,safety,[4],proved safe
same,number of vessels each image (CD31-positive),"CD31-positive vessels; day 7, peri-wound area, saline control 10.0±2.5",36.3±4.9
same,appearance of CD31-positive vessels,"CD31-positive vessels; day 7, versus saline alone","appreciably more “mature” CD31-positive vessels, with increased length and thickness"
